Source: the supplement of paper PMC10567573

B1: TOR1AIP2 (parent)
chain: YKYCDHENAAFKDVALVLTVLLEE

Variants of: B1
Test: protein stability index of a GFP-peptide fusion (GPS, HEK-293T) (PSI 1-6); higher = more stable
Details: c terminus: a fixed tail appended
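Note: lentivirally expressed fusions sorted by FACS into six bins by GFP to DsRed ratio, PSI derived from sequencing read proportions per bin multiplied by bin number.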

Variant	protein stability index
YKYCDHENAAFKDVALVLTVQLEE	1.73
YKYCDHENAAFKDVALVLTVMLEE	2.03
YKYCDHENAAFKDVALVLTVPLEE	1.73
YKYCDHENAAFKDVALVLTVDLEE	2.29
YKYCDHENAAFKDVALVLTVCLEE	1.47
YKYCDHENAAFKDVALVLTVSLEE	1.5
YKYCDHENAAFKDVALVLTVTLEE	4.25
YKYCDHENAAFKDVALVLTVILEE	2.99
YKYCDHENAAFKDVALVLTVWLEE	2.84
YKYCDHENAAFKDVALVLTVGLEE	1.05
YKYCDHENAAFKDVALVFTVLLEE	2
YKYCDHENAAFKDVALVETVLLEE	3.93
YKYCDHENAAFKDVALVNTVLLEE	3.26
YKYCDHENAAFKDVALVSTVLLEE	3.57
YKYCDHENAAFKDVALVITVLLEE	4.54
YKYCDHENAAFKDVALVGTVLLEE	3.58
YKYCDHENAAFKDVALVCTVLLEE	1.6
YKYCDHENAAFKDVALVKTVLLEE	3.17
YKYCDHENAAFKDVALVTTVLLEE	1.96
YKYCDHENAAFKDVALVYTVLLEE	1.43
YKYCDHENAAFKDVALVQTVLLEE	3.16
YKYCDHENAAFKDVALVPTVLLEE	3.09

Variant	protein stability index
YKYCDHENAAFKDVALVRTVLLEE	2.16
YKYCDHENAAFKDVALVHTVLLEE	2.77
YKYCDHENAAFKDVALVATVLLEE	1.91
YKYCDHENAAFKDVALVDTVLLEE	4.76
YKYCDHENAAFKDVALVLTVLYEE	3.23
YKYCDHENAAFKDVALVLTVLDEE	2.07
YKYCDHENAAFKDVALVLTVLAEE	3.63
YKYCDHENAAFKDVALVLTVLSEE	1.12
YKYCDHENAAFKDVALVLTVLHEE	2.53
YKYCDHENAAFKDVALVLTVLREE	2.7
YKYCDHENAAFKDVALVLTVLNEE	3.49
YKYCDHENAAFKDVALVLTVLQEE	1
YKYCDHENAAFKDCALVLTVLLEE	1.65
YKYCDHENAAFKDLALVLTVLLEE	4.94
YKYCDHENAAFKDHALVLTVLLEE	1.4
YKYCDHENAAFKDRALVLTVLLEE	1.54
YKYCDHENAAFKDTALVLTVLLEE	1
YKYCDHENAAFKDDALVLTVLLEE	1.46
YKYCDHENAAFKDAALVLTVLLEE	2.48
YKYCDHENAAFKDKALVLTVLLEE	2.12
YKYCDHENAAFKDIALVLTVLLEE	2.17
YKYCDHENAAFKDPALVLTVLLEE	1.88

Variant	protein stability index
YKYCDHENAAFKDEALVLTVLLEE	1.57
YKYCDHENAAFKDVALVLTVLLPE	4
YKYCDHENAAFKDVALVLTVLLNE	2.26
YKYCDHENAAFKDVALVLTVLLLE	5.46
YKYCDHENAAFKDVALVLTVLLAE	3.33
YKYCDHENAAFKDVALVLTVLLIE	2.81
YKYCDHENAAFKDVALVLTVLLHE	2.89
YKYCDHENAAFKDVALVLTVLLQE	2.07
YKYCDHENAAFKDVALVLTVLLCE	4.77
YKYCDHENAAFKDVQLVLTVLLEE	2.58
YKYCDHENAAFKDVPLVLTVLLEE	2.05
YKYCDHENAAFKDVTLVLTVLLEE	3.21
YKYCDHENAAFKDVRLVLTVLLEE	2.8
YKYCDHENAAFKDVGLVLTVLLEE	3.58
YKYCDHENAAFKDVSLVLTVLLEE	2.69
YKYCDHENAAFKDVILVLTVLLEE	1.96
YKYCDHENAAFKDVELVLTVLLEE	1
YKYCDHENAAFKDVALVLTKLLEE	2.03
YKYCDHENAAFKDVALVLTALLEE	1.06
YKYCDHENAAFKDVALVLTGLLEE	2.83
YKYCDHENAAFKDVALVLTSLLEE	1.41
YKYCDHENAAFKDVALVLTDLLEE	2.21

Variant	protein stability index
YKYCDHENAAFKDVALVLTRLLEE	2.03
YKYCDHENAAFKDVALVLTNLLEE	2.29
YKYCDHENAAFKDVALVLTTLLEE	2.03
YKYCDHENAAFKDVALVLTQLLEE	1.56
YKYCDHENAAFKDVALVLTCLLEE	2.82
YKYCDHENAAFKDVALVLTPLLEE	2.23
YKYCDHENAAFKDVALVLTELLEE	1.73
YKYCDHENAAFKDVALVLTHLLEE	1.46
YKYCDHENAAFKDVALVLTYLLEE	3.45
YKYCDHENAAFKDVALVLTMLLEE	4.6
YKYCDHENAAFKDVALVLTVLLEK	2.19
YKYCDHENAAFKDVALVLTVLLEF	3.27
YKYCDHENAAFKDVALVLTVLLEY	2.58
YKYCDHENAAFKDVALVLTVLLES	3.26
YKYCDHENAAFKDVALVLTVLLER	3.2
YKYCDHENAAFKDVALVLTVLLED	2.86
YKYCDHENAAFKDVALVLTVLLEA	2.84
YKYCDHENAAFKDVALVLTVLLEI	3.78
YKYCDHENAAFKDVALVLTVLLEH	3.71
YKYCDHENAAFKDVALVLTVLLEN	3.74
YKYCDHENAAFKTVALVLTVLLEE	2.09
YKYCDHENAAFKSVALVLTVLLEE	2.91

Variant	protein stability index
YKYCDHENAAFKQVALVLTVLLEE	2.66
YKYCDHENAAFKCVALVLTVLLEE	2.1
YKYCDHENAAFKGVALVLTVLLEE	1.75
YKYCDHENAAFKYVALVLTVLLEE	4.52
YKYCDHENAAFKLVALVLTVLLEE	3.1
YKYCDHENAAFKFVALVLTVLLEE	2.83
YKYCDHENAAFKEVALVLTVLLEE	2.46
YKYCDHENAAFKDVALFLTVLLEE	2.66
YKYCDHENAAFKDVALALTVLLEE	3.79
YKYCDHENAAFKDVALWLTVLLEE	2.31
YKYCDHENAAFKDVALYLTVLLEE	3.19
YKYCDHENAAFKDVALDLTVLLEE	2.23
YKYCDHENAAFKDVALSLTVLLEE	3.6
YKYCDHENAAFKDVALQLTVLLEE	1.84
YKYCDHENAAFKDVALRLTVLLEE	1.73
YKYCDHENAAFKDVALMLTVLLEE	1.94
YKYCDHENAAFKDVALKLTVLLEE	1.89
YKYCDHENAAFKDVALGLTVLLEE	2.05
YKYCDHENAAFKDVALPLTVLLEE	3.33
YKYCDHENAAFKDVALNLTVLLEE	2.3
YKYCDHENAAFKDVALELTVLLEE	2.51
YKYCDHENAAFYDVALVLTVLLEE	2.97

Variant	protein stability index
YKYCDHENAAFQDVALVLTVLLEE	3.33
YKYCDHENAAFKDVALVLKVLLEE	4.43
YKYCDHENAAFKDVALVLPVLLEE	1.74
YKYCDHENAAFKDVALVLDVLLEE	1.3
YKYCDHENAAFKDVALVLCVLLEE	5.95
YKYCDHENAAFKDVALVLMVLLEE	2.87
YKYCDHENAAFKDVALVLLVLLEE	3.88
YKYCDHENAAFKDVALVLHVLLEE	1.67
YKYCDHENAAFKDVALVLRVLLEE	4.55
YKYCDHENAAFKDVALVLNVLLEE	2.25
YKYCDHENAAFKDVALVLFVLLEE	2.68
YKYCDHENAAFKDVAWVLTVLLEE	3.88
YKYCDHENAAFKDVACVLTVLLEE	1.47
YKYCDHENAAFKDVATVLTVLLEE	1.5
YKYCDHENAAFKDVAEVLTVLLEE	1.51
YKYCDHENAAFKDVARVLTVLLEE	1.4
YKYCDHENAAFKDVAPVLTVLLEE	2.36
YKYCDHENAAFKDVANVLTVLLEE	2.88
YKYCDHENAAFKDVAHVLTVLLEE	1.9
YKYCDHENAAFKDVASVLTVLLEE	2.2
YKYCDHENAAFKDVAKVLTVLLEE	2.72
